Measurements as given in PMC8784147.

Biological target: HBV core protein dimer (Cp149 dimer, 34 kDa) (hepatitis B virus)
Test: multi-cycle resistive-pulse sensing

HBV core protein dimer (Cp149 dimer, 34 kDa) (domain or fragment)
stoichiometry N: 120 dimers
